Laboratory results taken from patent US20160017052A1 (Genentech, published 2016).
Numbering of substitutions follows the chain as printed. Names may count otherwise.

B1: AFD.v7 (TM.D92E; VL-D30E:D31S VH-D62E VL-D92E) (Fab, V domains shown)
VH: EVQLVQSGPELKKPGASVKVSCKASGYTFTNYGMNWVRQAPGQGLEWMGWINTYTGETTYAEDFKGRFVFSLDTSVSTAYLQISSLKAEDTAVYYCEREGGVNNWGQGTLVTVSS
VL: DIQVTQSPSSLSASVGDRVTITCITSTDIESDMNWYQQKPGKVPKLLISGGNTLRPGVPSRFSGSGSGTDFTLTISSLQPEDVATYYCLQSESLPYTFGQGTKVEIKR
B2: AFD.v8 (SIESD; VL-D28S:D30E:D31S VH-D62E) (Fab, V domains shown)
VH: B1 VH
VL: B1 VL with D28S, E92D
B3: AFD.v14 (SIESD.N103S; VL-D28S:D30E:D31S VH-D62E VH-N103S) (Fab, V domains shown)
VH: B1 VH with N103S
VL: B1 VL with D28S, E92D
B4: AFD.v15 (SIESD.N103S.D92E; VL-D28S:D30E:D31S:D92E VH-D62E:N103S) (Fab, V domains shown)
VH: B1 VH with N103S
VL: B1 VL with D28S
notes: Fab variant

Legend:
human factor D [1] = target: T1, human factor D (human, UniProt P00746 26-253); test: cell-based or functional assay
human factor D [2] = target: T1, human factor D; test: SPR, KD compared with AFD.v14
Experimental: The flow rate was 30 μL/min, the running buffer was HBS-P+, the temperature of analysis was 25° C., real-time reference cell subtraction was employed, and dissociation following factor D injection was followed for 10 minutes. After subtraction of the sensorgram observed for injection of running buffer, data were analyzed according to a 1:1 model using BiaEval software v4.1 (GE Healthcare) to extract the kinetics and affinity constants.

T1 sequence (P00746 26-253 limits assumed): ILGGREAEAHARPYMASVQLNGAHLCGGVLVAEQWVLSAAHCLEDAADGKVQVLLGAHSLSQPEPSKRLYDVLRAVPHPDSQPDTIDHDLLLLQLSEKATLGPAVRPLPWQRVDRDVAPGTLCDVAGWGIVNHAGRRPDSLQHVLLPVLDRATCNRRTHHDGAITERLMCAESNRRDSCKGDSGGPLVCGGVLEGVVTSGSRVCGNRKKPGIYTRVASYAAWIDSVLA

| Binder | IC50 (nM) AP Hemolysis (human factor D [1]) [nM] | fold decrease in affinity for fD against SIESD.N103S (AFD.v14) (human factor D [2]) [fold] |
| --- | --- | --- |
| B1 | 3.8 |  |
| B2 | 4.2 |  |
| B3 | 4.1 |  |
| B4 |  | 4 |
